Measured values reported in US20210063414A1, “METHODS FOR PREVENTING AND/OR TREATING BONE LOSS CONDITIONS BY MODULATING IRISIN” (Dana-Farber Cancer Institute, Inc., priority 2018, published 2021).

Assays:
[1] = molecular target: T1, MLO-Y4 cell surface proteins (Mus musculus, UniProt P41216); assay: Crosslinking/co-immunoprecipitation/mass spectrometry (TMT quantitative proteomics) to identify irisin receptors; format: binding; conditions: co-precipitated protein Acsl1 (ACSL1_MOUSE)
T1 construct: endogenous in cells; host or cells: MLO-Y4
T1 sequence (P41216 1-699): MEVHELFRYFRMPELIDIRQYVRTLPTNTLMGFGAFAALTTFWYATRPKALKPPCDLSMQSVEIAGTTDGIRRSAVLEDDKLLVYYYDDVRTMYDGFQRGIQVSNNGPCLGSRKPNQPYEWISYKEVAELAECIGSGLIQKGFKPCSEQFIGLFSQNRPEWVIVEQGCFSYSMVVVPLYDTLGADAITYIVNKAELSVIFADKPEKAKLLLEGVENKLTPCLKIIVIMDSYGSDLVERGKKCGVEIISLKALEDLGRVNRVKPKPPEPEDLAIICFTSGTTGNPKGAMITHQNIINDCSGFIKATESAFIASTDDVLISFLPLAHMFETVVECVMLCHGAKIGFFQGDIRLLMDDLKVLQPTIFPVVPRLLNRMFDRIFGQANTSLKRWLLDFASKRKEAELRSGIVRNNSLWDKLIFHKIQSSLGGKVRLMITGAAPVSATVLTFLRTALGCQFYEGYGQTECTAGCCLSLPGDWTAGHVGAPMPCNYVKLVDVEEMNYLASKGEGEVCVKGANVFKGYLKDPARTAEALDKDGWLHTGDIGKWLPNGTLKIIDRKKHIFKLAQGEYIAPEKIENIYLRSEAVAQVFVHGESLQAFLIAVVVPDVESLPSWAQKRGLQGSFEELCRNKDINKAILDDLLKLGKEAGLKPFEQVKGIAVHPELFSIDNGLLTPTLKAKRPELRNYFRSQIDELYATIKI
Summary of the method: (§1)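 Relative protein abundance came from 6-plex TMT MS3 quantitation on an Orbitrap Fusion Lumos, after in-gel trypsin digestion of Coomassie-stained SDS-PAGE lanes. Input was a Ni-NTA pulldown (250 mM imidazole elution) of lysates from murine MLO-Y4 cells. These cells were treated on ice with His-tagged irisin or adipsin (10 nM, 20 min) in serum-free medium, then crosslinked with 1.5 mM DTSSP for 30 min.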

[2] = molecular target: T2, MLO-Y4 cell surface proteins (Mus musculus, UniProt P97360); assay: as above; format: binding; conditions: co-precipitated protein Etv6 (ETV6_MOUSE)
T2 construct: endogenous in cells; host or cells: MLO-Y4
T2 sequence (P97360 1-485): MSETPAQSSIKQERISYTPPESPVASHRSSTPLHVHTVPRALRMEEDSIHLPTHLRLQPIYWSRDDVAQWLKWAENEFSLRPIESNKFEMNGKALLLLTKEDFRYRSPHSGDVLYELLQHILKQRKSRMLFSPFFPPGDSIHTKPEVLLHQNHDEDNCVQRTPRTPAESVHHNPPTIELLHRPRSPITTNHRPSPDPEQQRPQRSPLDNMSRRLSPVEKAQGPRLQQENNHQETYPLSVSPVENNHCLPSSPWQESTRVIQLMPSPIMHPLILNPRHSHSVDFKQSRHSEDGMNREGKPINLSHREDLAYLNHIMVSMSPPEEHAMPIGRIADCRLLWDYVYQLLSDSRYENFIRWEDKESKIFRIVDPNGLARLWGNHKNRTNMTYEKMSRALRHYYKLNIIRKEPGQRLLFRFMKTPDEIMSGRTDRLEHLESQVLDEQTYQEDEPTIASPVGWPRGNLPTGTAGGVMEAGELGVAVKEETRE
Summary of the method: as §1

Which results are given for adipsin?
TMT signal-to-noise ratio [1]: 361.33; TMT signal-to-noise ratio [2]: 137.108
